The target of test [1] is human PRSS1 (R&D Systems), activated with enterokinase (human, UniProt P07477 24-247). In words: cell-based or functional assay.
Test [2] deals with PRSS2 (R&D Systems), activated with enterokinase (human, UniProt P07478 24-247). Kind of test: cell-based or functional assay.
The target of test [3] is T1, human trypsin 1 with serine to alanine mutation (including a His tag at C terminus) (human, UniProt P07477 24-247).
T1 construct: also called Trypsin 1 S to A
In words: SPR (Biacore), antibody captured on Protein A chip, single-cycle kinetics, 25 C. The procedure: (§1) Antibody binding kinetic experiments via Biacore were performed to screen for anti-trypsin 1/trypsin 2 antibodies having high affinity to the respective targets. All screening assays were performed at 25 C. The running buffer used was 20 mM HEPES, 300 mM NaCl, 1 mM CaCl₂, 0.01% Tween-20, pH 7.5. Antibodies (1 ug/mL) were captured on Fc2-4 of a Series S ProteinA Sensor Chip (Cytiva) flowing at 10 uL/min for 30 s. Kinetics measurements were made in single-cycle kinetics mode with a series of 4-5 concentrations with top concentration of 10-200 nM and serial dilution 4-fold. Contact time was typically 180-300 s and dissociation time ranged from 300-3600 s. Flow rate of 30 uL/min was typically used. The sensor chip was regenerated with 10 mM glycine, pH 1.5 with a contact time of 30 s flowing at 50 uL/min.
Background: SPR reads the build-up and loss of mass on a sensor chip optically.

For test [4], the target named is T2, human trypsin 2 with serine to alanine mutation (including a His tag at C terminus) (human, UniProt P07478 25-247, limits assumed).
T2 construct: also called Trypsin 2 S to A
The description is as above. The procedure: as §1

Another test concerns the target Native Trypsin (abcam). Kind of test: cell-based or functional assay.

Sequence of PRSS2 (R&D Systems), activated with enterokinase (P07478 24-247 limits assumed): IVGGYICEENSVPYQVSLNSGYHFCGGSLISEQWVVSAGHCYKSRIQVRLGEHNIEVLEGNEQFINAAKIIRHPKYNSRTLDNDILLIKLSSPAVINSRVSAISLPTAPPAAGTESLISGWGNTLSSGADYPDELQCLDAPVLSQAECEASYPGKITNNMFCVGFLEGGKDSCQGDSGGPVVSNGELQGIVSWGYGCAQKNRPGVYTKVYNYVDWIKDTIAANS
T2 sequence (P07478 other isoform, or with tags, fused parts or gaps limits assumed): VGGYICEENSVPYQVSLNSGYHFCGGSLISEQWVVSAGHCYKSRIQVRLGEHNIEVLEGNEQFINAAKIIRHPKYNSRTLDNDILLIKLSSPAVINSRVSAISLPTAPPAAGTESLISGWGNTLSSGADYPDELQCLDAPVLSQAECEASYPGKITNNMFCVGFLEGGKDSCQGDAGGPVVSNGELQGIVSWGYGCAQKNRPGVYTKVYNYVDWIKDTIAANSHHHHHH

B1: Trypsin 1/Trypsin 2-Dual-L1-Ab1 (antibody, V domains shown)
VH: EVQLLESGGGLVQPGGSLRLSCAASGFTFSSYAMSWVRQAPGKGLEWVSAISASGGSTYYADSVKGRFTISRDNSKNTLYLQMNSLRAEDTAVYYCARGSPIGYSYARVSYYYYMDVWGKGTTVTVSS
VL: DIQMTQSPSSVSASVGDRVTITCRASQGISRWLAWYQQKPGKAPKLLIYAASSLQSGVPSRFSGSGSGTDFTLTISSLQPEDFATYYCQQGNSFPLTFGGGTKVEIK
The term Kd denotes the concentration at which binding is half-saturated. Take B1: in test [1], the “IC50 Against 1 nM hTryp-1” value was 63 nM. In test [2], the “IC50 Against 1 nM hTryp-2” value was 79 nM. Besides, the Kd came to 2.54 nM in test [3] and 0.763 nM in test [4].

B2: Trypsin 1/Trypsin 2-Dual-L4-Ab2 (antibody, V domains shown)
VH: QVQLVQSGAEVKKPGASVKVSCKASGYTFTDYAISWVRQAPGQGLEWMGWISASTADTNYAQKLQGRVTMTTDTSTSTAYMELRSLRSDDTAVYYCARGDEVVGKMTYYYGMDVWGQGTTVTVSS
VL: DIQMTQSPSSVSASVGDRVTITCRASQGISRWLAWYQQKPGKAPKLLIYAASSLQSGVPSRFSGSGSGTDFTLTISSLQPEDFATYYCQQANSFPITFGGGTKVEIK
As to B2, the “IC50 Against 1 nM hTryp-1” value in test [1] was found to be 2.07 nM. Besides, the “IC50 Against 1 nM hTryp-2” value in test [2] is 2.03 nM. Further, the “IC50 Against 0.25 nM Native Trypsin” value with Native Trypsin (abcam) was 5.51 nM. The Kd in test [3] is < 0.01 nM; in test [4], 0.0372 nM.

B3: Trypsin 1/Trypsin 2-Dual-L4-Ab5 (antibody, V domains shown)
VH: QVQLVQSGAEVKKPGASVKVSCKASGYTFTDYAISWVRQAPGQGLEWMGWISASTADTNYAQKLQGRVTMTTDTSTSTAYMELRSLRSDDTAVYYCARQDEVVGKMTYYIGTDVWGQGTTVTVSS
VL: DIQMTQSPSSVSASVGDRVTITCRASQGISRWLAWYQQKPGKAPKLLIYAASSLQSGVPSRFSGSGSGTDFTLTISSLQPEDFATYYCQQANSFPITFGGGTKVEIK
For the molecule B3, in test [1], the “IC50 Against 1 nM hTryp-1” value came out at 2.4 nM. In test [2], the “IC50 Against 1 nM hTryp-2” value was determined as 2.7 nM. The Kd in test [3] came to 0.00465 nM; in test [4], 0.0274 nM.

B4: Trypsin 1/Trypsin 2-Dual-L1-Ab2 (antibody, V domains shown)
VH: EVQLLESGGGLVQPGGSLRLSCAASGFTFGDYAMWWVRQAPGKGLEWVSAISASGDVTYYADSVKGRFTISRDNSKNTLYLQMNSLRAEDTAVYYCARGSLIGYSYARVSYYYYSDVWGKGTTVTVSS
VL: DIQMTQSPSSVSASVGDRVTITCRASQGISRWLAWYQQKPGKAPKLLIYAASSLQSGVPSRFSGSGSGTDFTLTISSLQPEDFATYYCQQGWSFPLTFGGGTKVEIK
In the case of B4, in test [1], the “IC50 Against 1 nM hTryp-1” value came out at 3.7 nM. In addition, in test [2], the “IC50 Against 1 nM hTryp-2” value was determined as 5.33 nM. Also, the “IC50 Against 0.25 nM Native Trypsin” value with Native Trypsin (abcam) stood at 7.98 nM. In addition, the equilibrium dissociation constant (Kd) in test [3] and in test [4] was < 0.01 nM throughout.

B5: Trypsin 1/Trypsin 2-Dual-L4-Ab3 (antibody, V domains shown)
VH: QVQLVQSGAEVKKPGASVKVSCKASGYTFTDYAISWVRQAPGQGLEWMGWISASTADTNYAQKLQGRVTMTTDTSTSTAYMELRSLRSDDTAVYYCARGDEVVGKRTYYIGMDVWGQGTTVTVSS
VL: DIQMTQSPSSVSASVGDRVTITCRASQGISRWLAWYQQKPGKAPKLLIYAASSLQSGVPSRFSGSGSGTDFTLTISSLQPEDFATYYCQQANSFPITFGGGTKVEIK
With B5, in test [1], the “IC50 Against 1 nM hTryp-1” value was found to be 2.31 nM. In test [2], the “IC50 Against 1 nM hTryp-2” value was found to be 2.01 nM. For the same molecule, the “IC50 Against 0.25 nM Native Trypsin” value with Native Trypsin (abcam) amounted to 4.43 nM. In addition, the Kd in test [3] came out at 0.00841 nM; in test [4], 0.0451 nM.

B6: Trypsin 1/Trypsin 2-Dual-L4-Ab1 (antibody, V domains shown)
VH: QVQLVQSGAEVKKPGASVKVSCKASGYTFTSYGISWVRQAPGQGLEWMGWISAYSGDTNYAQKLQGRVTMTTDTSTSTAYMELRSLRSDDTAVYYCARGDEVVGKMTYYYGMDVWGQGTTVTVSS
VL: DIQMTQSPSSVSASVGDRVTITCRASQGISRWLAWYQQKPGKAPKLLIYAASSLQSGVPSRFSGSGSGTDFTLTISSLQPEDFATYYCQQANSFPITFGGGTKVEIK
In the case of B6, the “IC50 Against 1 nM hTryp-1” value in test [1] was 1.8 nM. The “IC50 Against 1 nM hTryp-2” value in test [2] turned out to be 14 nM. In addition, the Kd came to 0.0809 nM in test [3] and 0.547 nM in test [4].

B7: Trypsin 1/Trypsin 2-Dual-L4-Ab4 (antibody, V domains shown)
VH: QVQLVQSGAEVKKPGASVKVSCKASGYTFTDYAISWVRQAPGQGLEWMGWISASTADTNYAQKLQGRVTMTTDTSTSTAYMELRSLRSDDTAVYYCARGTEVVGKMTVYLGMDVWGQGTTVTVSS
VL: DIQMTQSPSSVSASVGDRVTITCRASQGISRWLAWYQQKPGKAPKLLIYAASSLQSGVPSRFSGSGSGTDFTLTISSLQPEDFATYYCQQANSFPITFGGGTKVEIK
Regarding B7, in test [1], the “IC50 Against 1 nM hTryp-1” value turned out to be 2.05 nM. In addition, the “IC50 Against 1 nM hTryp-2” value in test [2] came to 2.01 nM. In addition, in the test with Native Trypsin (abcam), the “IC50 Against 0.25 nM Native Trypsin” value is 5.48 nM. In addition, the figures for the Kd in test [3] and in test [4] were < 0.01 nM and 0.0206 nM, respectively.

B8: Trypsin 1/Trypsin 2-Dual-L3-Ab1 (antibody, V domains shown)
VH: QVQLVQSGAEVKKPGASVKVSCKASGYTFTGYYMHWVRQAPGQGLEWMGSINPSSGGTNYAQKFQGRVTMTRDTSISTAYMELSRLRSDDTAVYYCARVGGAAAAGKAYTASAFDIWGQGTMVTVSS
VL: EIVMTQSPATLSVSPGERATLSCRASQSVGSNLAWYQQKPGQAPRLLIYGASTRATGIPARFSGSGSGTEFTLTISSLQSEDFAVYYCQQFHNWPPLTFGGGTKVEIK
In the case of B8, the “IC50 Against 1 nM hTryp-1” value in test [1] is 5 nM. For the same molecule, the “IC50 Against 1 nM hTryp-2” value in test [2] came out at 16 nM. The Kd stood at 0.0177 nM in test [3] and 0.159 nM in test [4].

B9: Trypsin 1/Trypsin 2-Dual-L5-Ab1 (antibody, V domains shown)
VH: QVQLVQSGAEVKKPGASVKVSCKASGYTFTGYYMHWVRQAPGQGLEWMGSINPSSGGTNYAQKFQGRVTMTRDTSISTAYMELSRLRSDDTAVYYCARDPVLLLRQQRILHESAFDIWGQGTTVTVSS
VL: EIVMTQSPATLSVSPGERATLSCRASQSVGSNLAWYQQKPGQAPRLLIYGASTRATGIPARFSGSGSGTEFTLTISSLQSEDFAVYYCQQFHNWPPLTFGGGTKVEIK
On to B9, for which the “IC50 Against 1 nM hTryp-1” value in test [1] was determined as 45 nM. In test [2], the “IC50 Against 1 nM hTryp-2” value was determined as 23 nM. Besides, the results for the Kd in test [3] and in test [4] were 0.151 nM and 0.227 nM, respectively.

B10: Trypsin 1/Trypsin 2-Dual-L3-Ab2 (antibody, V domains shown)
VH: QVQLVQSGAEVKKPGASVKVSCKASGYTFTDHYMHWVRQAPGQGLEWMGAINPSSGGTAYAQKFQGRVTMTRDTSISTAYMELSRLRSDDTAVYYCARVGGAARVGKAYTASAFDIWGQGTMVTVSS
VL: EIVMTQSPATLSVSPGERATLSCRASQSVGSNLAWYQQKPGQAPRLLIYGASTRATGIPARFSGSGSGTEFTLTISSLQSEDFAVYYCQQFHNWPPLTFGGGTKVEIK
Consider B10, for which the “IC50 Against 1 nM hTryp-1” value in test [1] is 2.75 nM. The “IC50 Against 1 nM hTryp-2” value in test [2] amounted to 4.29 nM. Also, in the test with Native Trypsin (abcam), the “IC50 Against 0.25 nM Native Trypsin” value is 5.95 nM. In addition, the values for the Kd in test [3] and in test [4] were 0.00562 nM and 0.0292 nM, respectively.

B11: Trypsin 1/Trypsin 2-Dual-L2-Ab4 (antibody, V domains shown)
VH: QVQLQESGPGLVKPSETLSLTCTVSGGSISSHYWHWIRQPAGKGLEWIGRIHTSGSTFYNPSLKSRVTMSVDTSKNQFSLKLSSVTAADTAVYYCARDLTNYGWSKSIRFYGMDVWGQGTTVTVSS
VL: DIQMTQSPSSLSASVGDRVTITCQASQDISNYLNWYQQKPGKAPKLLIYDASNLETGVPSRFSGSGSGTDFTFTISSLQPEDIATYYCQQTDNFITFGGGTKVEIK
In the case of B11, the “IC50 Against 1 nM hTryp-1” value in test [1] is 3.71 nM. The “IC50 Against 1 nM hTryp-2” value in test [2] was 5.6 nM. In the test with Native Trypsin (abcam), the “IC50 Against 0.25 nM Native Trypsin” value was found to be 4.97 nM. The Kd in test [3] is < 0.01 nM; in test [4] it was 0.00904 nM.

B12: Trypsin 1/Trypsin 2-Dual-L2-Ab3 (antibody, V domains shown)
VH: QVQLQESGPGLVKPSETLSLTCTVSGGSISSHYWHWIRQPAGKGLEWIGRIATSGSTYYNPSLKSRVTMSVDTSKNQFSLKLSSVTAADTAVYYCARDLTNYGITKSIRFYGMDVWGQGTTVTVSS
VL: DIQMTQSPSSLSASVGDRVTITCQASQDISNYLNWYQQKPGKAPKLLIYDASNLETGVPSRFSGSGSGTDFTFTISSLQPEDIATYYCQQVDNFITFGGGTKVEIK
With B12, the “IC50 Against 1 nM hTryp-1” value in test [1] came out at 2.3 nM. In test [2], the “IC50 Against 1 nM hTryp-2” value amounted to 2.44 nM. Also, the “IC50 Against 0.25 nM Native Trypsin” value with Native Trypsin (abcam) came out at 4.63 nM. For the same molecule, the Kd worked out at 0.0118 nM in test [3] and 0.0219 nM in test [4].

B13: Trypsin 1/Trypsin 2-Dual-L2-Ab1 (antibody, V domains shown)
VH: QVQLQESGPGLVKPSETLSLTCTVSGGSISSYYWSWIRQPAGKGLEWIGRIYTSGSTNYNPSLKSRVTMSVDTSKNQFSLKLSSVTAADTAVYYCARDLTNYGSGKSIRFYGMDVWGQGTTVTVSS
VL: DIQMTQSPSSLSASVGDRVTITCQASQDISNYLNWYQQKPGKAPKLLIYDASNLETGVPSRFSGSGSGTDFTFTISSLQPEDIATYYCQQDDNFITFGGGTKVEIK
B13: the “IC50 Against 1 nM hTryp-1” value in test [1] stood at 46 nM. The “IC50 Against 1 nM hTryp-2” value in test [2] was 79 nM. The Kd came to 2.61 nM in test [3] and 2.2 nM in test [4].

B14: Trypsin 1/Trypsin 2-Dual-L2-Ab2 (antibody, V domains shown)
VH: QVQLQESGPGLVKPSETLSLTCTVSGGSISSNYWHWIRQPAGKGLEWIGRIHTSGSTFYNPSLKSRVTMSVDTSKNQFSLKLSSVTAADTAVYYCARDITNYGSGKSIRFYPMDVWGQGTTVTVSS
VL: DIQMTQSPSSLSASVGDRVTITCQASQDISNYLNWYQQKPGKAPKLLIYDASNLETGVPSRFSGSGSGTDFTFTISSLQPEDIATYYCQQDDTFITFGGGTKVEIK
For B14, the “IC50 Against 1 nM hTryp-1” value in test [1] stood at 2.67 nM. Besides, the “IC50 Against 1 nM hTryp-2” value in test [2] came to 3.3 nM. The “IC50 Against 0.25 nM Native Trypsin” value with Native Trypsin (abcam) came out at 5.51 nM. Moreover, the results for the dissociation constant Kd in test [3] and in test [4] were 0.000891 nM and 0.00988 nM, respectively.

Source of the values: US20260274991A1 (TRIVENI BIO, published 2026).
